Biological target: GST-LT-Ag (HPD to AAA) mutant (JC virus (JCV)) (UniProt P03072)
Assay: pull-down

Chain of human heat shock protein Hsp70 (P0DMV8 whole entry): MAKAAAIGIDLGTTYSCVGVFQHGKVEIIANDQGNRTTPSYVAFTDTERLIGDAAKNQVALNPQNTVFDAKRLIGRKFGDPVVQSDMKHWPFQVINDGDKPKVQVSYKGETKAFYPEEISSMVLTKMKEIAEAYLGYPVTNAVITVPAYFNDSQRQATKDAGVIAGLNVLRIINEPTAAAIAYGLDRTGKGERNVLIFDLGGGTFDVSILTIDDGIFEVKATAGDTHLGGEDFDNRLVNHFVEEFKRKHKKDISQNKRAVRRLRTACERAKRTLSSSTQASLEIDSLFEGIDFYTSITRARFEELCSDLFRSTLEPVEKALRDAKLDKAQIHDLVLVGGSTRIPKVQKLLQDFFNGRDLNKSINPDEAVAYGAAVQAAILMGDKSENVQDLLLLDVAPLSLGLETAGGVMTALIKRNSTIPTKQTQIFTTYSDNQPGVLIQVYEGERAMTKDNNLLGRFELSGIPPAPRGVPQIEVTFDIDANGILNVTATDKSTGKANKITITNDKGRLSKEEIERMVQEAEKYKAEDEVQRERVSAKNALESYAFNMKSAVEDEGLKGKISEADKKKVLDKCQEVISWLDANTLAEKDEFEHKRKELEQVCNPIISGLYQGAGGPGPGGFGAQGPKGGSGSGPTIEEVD

human heat shock protein Hsp70 (from UniProt P0DMV8 1-641) (natural protein)
reduction of the interaction against WT: > 50%

— article PMC3987903
